We go through one molecule from patent US20190025332A1 (Novo Nordisk, published 2019).

For one experiment, the target named is T1, wild type human MIC-1 (human, UniProt Q99988 197-308).
T1 construct: also called wtMIC-1; hMIC-1
T1 sequence: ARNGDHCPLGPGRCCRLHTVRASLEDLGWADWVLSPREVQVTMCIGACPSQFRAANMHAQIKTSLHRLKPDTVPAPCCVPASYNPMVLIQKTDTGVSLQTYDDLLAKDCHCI
Kind of experiment: SPR; GFRAL fragment as analyte over immobilised wtMIC-1; relative to hGFRAL(ECR) set as 100%. As to the method:
MIC-1 interactions with soluble GFRAL fragments were assessed by SPR-based binding assay. A Biacore® 4000 (GE Healthcare, Piscataway, N.J., USA) instrument was used for SPR-based binding assay. The assays were performed at 25° C. at flow rates of 30 μL/minute in 1× HBS-P running buffer (BR-1006-71, GE Healthcare, Piscataway, N.J., USA). Purified GFRAL fragments at various concentrations were run as flow-through analyte and wtMIC-1 was immobilized as ligand. Please see FIG. 6 and Table 5.

Another experiment addresses T2, hARTN (human, UniProt Q5T4W7 108-220).
T2 sequence (looked up): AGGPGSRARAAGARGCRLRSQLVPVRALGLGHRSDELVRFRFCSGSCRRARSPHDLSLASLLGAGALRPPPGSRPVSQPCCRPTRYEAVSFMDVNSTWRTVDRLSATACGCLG
Briefly: SPR; ligand as analyte over immobilised hGFRAL(ECR)-Fab-HPC4. The text has this: (§1) For SPR-based binding assay, wtMIC-1 as well as hGDNF, hNRTN, hARTN and hPSPN, at various concentrations were run as flow-through analytes. hGFRAL(ECR)-Fab and mGFRAL(ECR)-Fab were immobilized as ligand. […] FCRL2-Fab-HPC4 (Ctrl.-Fab-HPC4) was used as control. Please see FIG. 5 and Table 4.
For orientation: SPR reads the build-up and loss of mass on a sensor chip optically.

Another experiment has as its target T3, hNRTN (human, UniProt Q99748 96-197).
T3 sequence (looked up): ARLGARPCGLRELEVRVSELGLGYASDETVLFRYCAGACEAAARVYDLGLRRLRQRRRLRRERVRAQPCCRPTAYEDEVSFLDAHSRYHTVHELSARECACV
Described as above.
Description: as §1

The next experiment deals with T4, hPSPN (human, UniProt O60542 61-156, limits assumed).
T4 sequence (looked up): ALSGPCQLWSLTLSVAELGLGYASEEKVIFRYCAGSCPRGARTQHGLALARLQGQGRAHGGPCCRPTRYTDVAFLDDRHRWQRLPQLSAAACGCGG
Described as above.
Description: as §1

Another experiment concerns the target T5, hGDNF (human, UniProt P39905 78-211).
T5 sequence (looked up): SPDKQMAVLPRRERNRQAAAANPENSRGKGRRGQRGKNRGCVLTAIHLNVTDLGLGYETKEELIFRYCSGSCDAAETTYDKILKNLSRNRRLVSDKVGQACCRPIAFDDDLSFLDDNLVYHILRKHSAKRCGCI
Described as above.
Description: as §1

B1: hGFRAL(ECR)-Fab-HPC4 (receptor)
chain: QTNNCTYLREQCLRDANGCKHAWRVMEDACNDSDPGDPCKMRNSSYCNLSIQYLVESNFQFKECLCTDDFYCTVNKLLGKKCINKSDNVKEDKFKWNLTTRSHHGFKGMWSCLEVAEACVGDVVCNAQLASYLKACSANGNPCDLKQCQAAIRFFYQNIPFNIAQMLAFCDCAQSDIPCQQSKEALHSKTCAVNMVPPPTCLSVIRSCQNDELCRRHYRTFQSKCWQRVTRKCHEDENCISTLSKQDLTCSGSDDCKAAYIDILGTVLQVQCTCRTITQSEESLCKIFQHMLHRKSCFNYPTLSNVKGMALYTRKHANKITLTGFHSPFNGEGGGGSGGGGSDVVMTQTPLSLPVSLGDQASISCRSSQSLLHSNGNTYLHWYLQKPGQSPKLLIYKVSNRFSGVPDRFSGSGSGTDFTLKISRVEAEDLGVYFCSQSTHVPWTFGGGTKLEIKRADAAPTVSIFPPSSEQLTSGGASVVCFLNNFYPKDINVKWKIDGSERQNGVLNSWTDQDSKDSTYSMSSTLTLTKDEYERHNSYTCEATHKTSTSPIVKSFNRNEC
heavy: EVQIQESGPSLVKPSQTLSLTCSVSGDSITSGYWNWIRKFPGHKIEYMGTISYSGDTYYNPSLKSRISITRDTSKNQYYLHLNSVTTEDTATYYCARYGSYVFDYWGQGTTLTVSSAKTTPPSVYPLAPGSAAQTNSMVTLGCLVKGYFPEPVTVTWNSGSLSSGVHTFPAVLQSDLYTLSSSVTVPSSTWPSETVTCNVAHPASSTKVDKKIVPRDCGGGGSEDQVDPRLIDGK
For B1, the “% of Binding” value in the experiment with wild type human MIC-1 was 100%. The binding result with hARTN, in the experiment with hNRTN, with hPSPN and in the experiment with hGDNF was “no binding” each time.
